# Laboratory results: patent US20140294863A1, “SERUM ALBUMIN BINDING PEPTIDES FOR TUMOR TARGETING” (GENENTECH, INC., priority 2002, published 2014)
# Marks after values point to notes of the source that are not given here. Where a SMILES comes first, the peptide text is derived from it. Bridges are numbered along the chain shown (N, C = ends). Where no end group is shown, it is not given here.
# How the values were obtained:
# rat albumin [1] = target: T1, rat albumin (Rattus norvegicus, UniProt P02770); test: SA08b binding assay (peptide competition ELISA), rat albumin; set-up: purchased Sigma; conditions: concentrations of up to 100 μM; data not shown
# Description: (§1) Plates were blocked as described above.
# (§2) Peptides corresponding to identified phage sequences were synthesized and their affinity for rat, rabbit or mouse albumin measured using the SA08b binding assay.
# rabbit albumin [2] = target: T2, rabbit albumin (Oryctolagus cuniculus, UniProt P49065); test: SA08b binding assay (peptide competition ELISA), rabbit albumin; set-up: purchased Sigma; conditions: for effect on SA08b peptide binding to rabbit albumin: concentrations of up to 100 μM, data not shown; for improvement in IC50 relative to core sequence of about 10 amino acids: rabbit albumin
# Description: as §1, §2
# albumin = test: SA08b binding assay / competition ELISA, albumin species not stated; conditions: albumin species not given
# rabbit albumin [3] = target: T2, rabbit albumin; test: Phage ELISA, phage clones on immobilized rabbit albumin; assay type: binding; set-up: purchased Sigma; conditions: for phage binding to rabbit albumin at pH 2.9: data not shown
# Procedure: (§3) Phage clones (approximately 10^11 phage) were added to Maxisorp plates coated with rat, rabbit, or human albumin or with mouse, bovine, or rhesus albumin (Sigma), as described above. The microtiter plate was washed with wash buffer and bound phage were detected following incubation with HRP/Anti-M13 Conjugate (Amerisham Pharmacia Biotech, Piscataway, N.J.).
# [4] = Pharmacokinetics of AB.Fab variants in rabbits (HER2 Binding ELISA); assay type: in vivo; conditions: Rabbit; group mean
# Procedure: (§4) All pharmacokinetic (PK) studies were conducted according to protocols approved by the Institutional Animal Care and Use Committee at Genentech, Inc. Sprague Dawley rats were supplied by Charles River Laboratories (Hollister, Calif. USA). New Zealand White (NWZ) rabbits were supplied by Myrtle's Rabbitry (Thompson Station, Tenn. USA). BALB-c mice were supplied by Charles River (Hollister, Calif. USA).
# (§5) Briefly, samples were added to microtiter wells coated with HER2ecd and incubated for 2 hours at room temperature. The wells were washed, and goat anti-huFab-HRP was added and incubated for 1 hour at room temperature. Unbound HRP was removed by washing and enzyme substrate was added to detect bound HRP. […] Concentrations of AB.Fab were extrapolated by comparison to a standard curve of the dosed molecule.
# (§6) For rats and rabbits, concentration versus time profiles for each animal were fit to a two compartment model using, iterative re-weighting to estimate the pharmacokinetic parameters of Area Under the Concentration-Time Curve (AUC), Clearance (CL), Beta Half-Life (t1/2β), Volume of Distribution of the Central Compartment (V1), and Steady State Volume of Distribution (Vss) using WinNonlin® software (Version 3.2, Pharsight, Inc.; Mountain View, Calif.) and group means were calculated.
# rat albumin [5] = target: T1, rat albumin; test: Solution Binding ELISA, AB.Fab variants with soluble rat albumin; set-up: purchased Sigma; conditions: Rat albumin, as listed in Table 15; read-out: Kd for Albumin
# [6] = Pharmacokinetics of AB.Fab variants in rats (HER2 Binding ELISA); assay type: in vivo; conditions: Rat; group mean
# Procedure: as §4
# At pre-dose, and over the course of 7 days post-dose, plasma was collected via a cannula inserted in the jugular vein.
# as §5, §6
# [7] = Pharmacokinetics of AB.Fab variants in mice (HER2 Binding ELISA); assay type: in vivo; conditions: Mouse, group mean profile; for t1/2β: 4D5-H8 fit to one-compartment model (one half life estimate)
# Procedure: as §4
# Over the course of 7 days serum was collected in 3 mice per time point by retro-orbital bleed or cardiac stick.
# as §5
# In mice, a group mean serum concentration versus time profile was determined, producing one estimate for pharmacokinetic parameters for each AB.Fab dosing group. […] AB.Fab variant 4D5-H8 was fit to a one compartment model and estimates for the PK parameters of AUC, CL, Half-Life (t1/2) and V1 were determined using WinNonlin® software (Pharsight, Inc., supra).
# rat albumin [8] = target: T1, rat albumin; test: Direct Binding ELISA, AB.Fab variants on immobilized rat albumin; set-up: purchased Sigma; conditions: average and SD of at least 3 determinations
# Procedure: (§7) Mouse, rat, or rabbit albumin (Sigma, St. Louis, Mo.) were immobilized onto NUNC Maxisorp™ 96-well plates at 2 ug/ml overnight at 4° C. […] AB.Fab variants were serially diluted in binding buffer and added at 100 μl per well to the immobilized albumin for 30 minutes at 25° C. Unbound AB.Fab variant was removed by washing wells with 0.05% PBS/Tween® 20 and bound AB.Fab variant was detected with goat anti-human Fab′2-HRP for 1 hour at 25° C. Bound HRP was measured with a solution of tetramethylbenzidine (TMB)/H202. After 15 minutes, the reaction was quenched by the addition of 1M phosphoric acid.
# (§8) Initially we explored binding of the AB.Fab variants to immobilized albumin using a Direct Binding ELISA.
# rabbit albumin [9] = target: T2, rabbit albumin; test: Direct Binding ELISA, AB.Fab variants on immobilized rabbit albumin; set-up: purchased Sigma; conditions: average and SD of at least 3 determinations
# Procedure: as §7, §8
# human albumin = target: T3, human albumin (Homo sapiens, UniProt P02768); test: Phage ELISA, phage clones on immobilized human albumin; assay type: binding
# T3 construct: purchased Sigma
# Procedure: as §3
# T1 sequence (P02770 25-608): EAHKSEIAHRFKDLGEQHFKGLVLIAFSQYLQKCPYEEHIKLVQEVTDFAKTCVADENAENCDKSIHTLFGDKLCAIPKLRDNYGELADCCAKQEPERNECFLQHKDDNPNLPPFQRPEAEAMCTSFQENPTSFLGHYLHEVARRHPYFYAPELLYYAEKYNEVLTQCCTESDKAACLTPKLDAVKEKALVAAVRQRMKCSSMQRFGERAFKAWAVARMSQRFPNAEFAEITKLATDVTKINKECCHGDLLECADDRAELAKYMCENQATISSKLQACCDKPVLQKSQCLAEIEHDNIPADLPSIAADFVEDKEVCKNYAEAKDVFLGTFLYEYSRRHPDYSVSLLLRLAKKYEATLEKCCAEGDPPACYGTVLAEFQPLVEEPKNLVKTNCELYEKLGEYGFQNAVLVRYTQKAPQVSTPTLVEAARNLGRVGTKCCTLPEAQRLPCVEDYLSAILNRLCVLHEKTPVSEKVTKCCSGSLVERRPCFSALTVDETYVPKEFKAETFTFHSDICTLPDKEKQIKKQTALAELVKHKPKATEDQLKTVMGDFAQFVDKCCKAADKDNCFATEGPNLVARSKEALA
# T2 sequence (P49065 25-608): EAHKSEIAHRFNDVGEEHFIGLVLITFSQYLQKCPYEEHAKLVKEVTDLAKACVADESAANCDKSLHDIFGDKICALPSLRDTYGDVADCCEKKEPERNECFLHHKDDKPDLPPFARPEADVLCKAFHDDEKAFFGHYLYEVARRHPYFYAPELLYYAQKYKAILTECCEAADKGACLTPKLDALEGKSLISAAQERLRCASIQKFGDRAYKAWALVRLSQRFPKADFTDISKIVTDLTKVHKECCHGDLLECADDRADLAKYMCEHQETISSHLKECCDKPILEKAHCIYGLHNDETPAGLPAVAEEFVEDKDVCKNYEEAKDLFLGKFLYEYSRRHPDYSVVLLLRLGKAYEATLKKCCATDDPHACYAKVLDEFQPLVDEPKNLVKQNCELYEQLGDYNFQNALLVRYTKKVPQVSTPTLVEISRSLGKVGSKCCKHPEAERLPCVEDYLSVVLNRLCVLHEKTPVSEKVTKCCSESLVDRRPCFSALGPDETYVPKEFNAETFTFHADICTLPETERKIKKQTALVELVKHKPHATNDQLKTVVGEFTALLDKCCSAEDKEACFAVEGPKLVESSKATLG
compound,measurement,setting,value
"CCCCCCCCCCCCCC(=O)O [myristic acid, reference compound]",effect on SA08b peptide binding to rat albumin,rat albumin [1],no effect
same,effect on SA08b peptide binding to rabbit albumin,rabbit albumin [2],no effect
"linear peptide, identical to SA06, but having both Cys residues altered to Ala: linear peptide, identical to SA06, but having both Cys residues altered to Ala (LEYEDIALPKWGALWGGE)",IC50,albumin,> 50000 nM
QRHPEDICLPRWGCLWGDDD [RB-H1],phage binding to rabbit albumin at pH 2.9,rabbit albumin [3],no binding
"CC[C@H](C)[C@H](NC(=O)[C@H](CC(=O)O)NC(C)=O)C(=O)N[C@H]1CSSC[C@@H](C(=O)N[C@@H](CC(C)C)C(=O)N[C@@H](Cc2c[nH]c3ccccc23)C(=O)N[C@@H](CCC(=O)O)C(=O)N[C@@H](CC(=O)O)C(N)=O)NC(=O)CNC(=O)[C@H](Cc2c[nH]c3ccccc23)NC(=O)[C@H](CCCNC(=N)N)NC(=O)[C@@H]2CCCN2C(=O)[C@H](CC(C)C)NC1=O [SA26, Ac DICLPRWGCLWED NH2] (Ac-DICLPRWGCLWED-NH2; disulfide 3-9)",improvement in IC50 relative to core sequence of about 10 amino acids,rabbit albumin [2],about 8.6 fold
AB.Fab 4D5-H11 (DICLPRWGCL; disulfide 3-9 (inferred); also: part of Fab heavy chain),AUC,[4],24.6 ± 2.74 µg·h/mL
same,CL,[4],20.6 ± 2.24 mL/h/kg
same,V1,[4],0.0404 ± 0.00438 L/kg
same,Vss,[4],0.101 ± 0.0317 L/kg
same,t1/2β,[4],11.9 ± 2.61 h
same,Kd,rat albumin [5],2500 nM
same,AUC,[6],57.0 ± 7.39 µg·h/mL
same,CL,[6],80.2 ± 11.8 mL/h/kg
same,V1,[6],0.0487 ± 0.00225 L/kg
same,Vss,[6],0.0816 ± 0.00576 L/kg
same,t1/2β,[6],4.21 ± 0.151 h
CC[C@H](C)[C@H](NC(=O)[C@H](CC(C)C)NC(=O)[C@H](CCCNC(=N)N)NC(C)=O)C(=O)N[C@@H](CCC(=O)O)C(=O)N[C@@H](CC(=O)O)C(=O)N[C@H](C(=O)N[C@H]1CSSC[C@@H](C(=O)N[C@@H](CC(C)C)C(N)=O)NC(=O)CNC(=O)[C@H](Cc2c[nH]c3ccccc23)NC(=O)[C@H](CCCNC(=N)N)NC(=O)[C@@H]2CCCN2C(=O)[C@H](CC(C)C)NC1=O)[C@@H](C)CC [SA33] (Ac-RLIEDICLPRWGCL-NH2; disulfide 7-13),improvement in IC50 relative to core sequence of about 10 amino acids,rabbit albumin [2],approximately 6 fold
AB.Fab 4D5-H4 (DICLPRWGCLWED; disulfide 3-9 (inferred); also: part of Fab heavy chain),AUC,[4],127 ± 16.5 µg·h/mL
same,CL,[4],3.58 ± 0.496 mL/h/kg
same,V1,[4],0.0305 ± 0.00167 L/kg
same,Vss,[4],0.0822 ± 0.0102 L/kg
same,t1/2β,[4],28.3 ± 2.88 h
same,AUC,[6],1450 ± 146 µg·h/mL
same,CL,[6],3.24 ± 0.352 mL/h/kg
same,V1,[6],0.0522 ± 0.00421 L/kg
same,Vss,[6],0.076 ± 0.00656 L/kg
same,t1/2β,[6],20.7 ± 1.07 h
same,AUC,[7],2070 µg·h/mL
same,CL,[7],2.41 mL/h/kg
same,V1,[7],0.0284 L/kg
same,Vss,[7],0.0444 L/kg
same,t1/2β,[7],13.5 h
AB.Fab 4D5-H8 (IEDICLPRWGCLWE; disulfide 5-11 (inferred); also: part of Fab heavy chain),AUC,[4],232 ± 62.7 µg·h/mL
same,CL,[4],1.99 ± 0.477 mL/h/kg
same,V1,[4],0.0296 ± 0.00332 L/kg
same,Vss,[4],0.0659 ± 0.0071 L/kg
same,t1/2β,[4],36.2 ± 7.13 h
same,AUC,[6],1890 ± 294 µg·h/mL
same,CL,[6],2.44 ± 0.453 mL/h/kg
same,V1,[6],0.0458 ± 0.00811 L/kg
same,Vss,[6],0.0859 ± 0.0154 L/kg
same,t1/2β,[6],28.0 ± 1.88 h
same,AUC,[7],2610 µg·h/mL
same,CL,[7],1.91 mL/h/kg
same,Vss,[7],0.0387 L/kg
same,t1/2β,[7],14.0^b hr
CC[C@H](C)[C@H](NC(=O)[C@H](CC(C)C)NC(=O)[C@H](CCCNC(=N)N)NC(C)=O)C(=O)N[C@@H](CCC(=O)O)C(=O)N[C@@H](CC(=O)O)C(=O)N[C@H](C(=O)N[C@H]1CSSC[C@@H](C(N)=O)NC(=O)CNC(=O)[C@H](Cc2c[nH]c3ccccc23)NC(=O)[C@H](CCCNC(=N)N)NC(=O)[C@@H]2CCCN2C(=O)[C@H](CC(C)C)NC1=O)[C@@H](C)CC [SA35] (Ac-RLIEDICLPRWGC-NH2; disulfide 7-13),IC50,rabbit albumin [2],> 250000 nM
4D5-H10: AB.Fab variant made by deletion in 4D5-H4 (Table 12) (DICLPRWGCLW; disulfide 3-9 (inferred); also: part of Fab heavy chain),EC50,rat albumin [8],8 ± 0.003 nM
same,EC50,rabbit albumin [9],> 2000 nM
"N[C@@H](Cc1c[nH]c2ccccc12)C(=O)O [L-tryptophan, reference compound]",effect on SA08b peptide binding to rat albumin,rat albumin [1],no effect
same,effect on SA08b peptide binding to rabbit albumin,rabbit albumin [2],no effect
"CN(C)c1cccc2c(S(=O)(=O)N(C)CC(=O)O)cccc12 [dansylsarcosine, reference compound]",effect on SA08b peptide binding to rat albumin,rat albumin [1],no effect
same,effect on SA08b peptide binding to rabbit albumin,rabbit albumin [2],no effect
"QRQMVDFCLPQWGCLWGDGF [RB, phage clone selected on rat SA, ID 35]",binding to human albumin,human albumin,capable of binding
same,binding to rabbit albumin,rabbit albumin [3]; phage ELISA,capable of binding
HSQMEDICLPRWGCLWGDEL [RB-B8],phage binding to rabbit albumin at pH 2.9,rabbit albumin [3],no binding
"[Cl][Cu][Cl] [CuCl2, reference compound]",effect on SA08b peptide binding to rat albumin,rat albumin [1],no effect
same,effect on SA08b peptide binding to rabbit albumin,rabbit albumin [2],no effect
"4D5-H4: AB.Fab variant of Fab4D5 with shortened albumin-binding peptide on heavy chain, no GGGS linker (Table 12) (DICLPRWGCLWED; disulfide 3-9 (inferred); also: part of Fab heavy chain)",EC50,rabbit albumin [9],500 ± 50 nM
"4D5-H8: AB.Fab variant of Fab4D5 with shortened albumin-binding peptide on heavy chain, no GGGS linker (Table 12) (IEDICLPRWGCLWE; disulfide 5-11 (inferred); also: part of Fab heavy chain)",EC50,rabbit albumin [9],500 ± 50 nM
AB.Fab 4D5-H10 (DICLPRWGCLW; disulfide 3-9 (inferred); also: part of Fab heavy chain),AUC,[4],33.7 ± 3.32 µg·h/mL
same,CL,[4],13.5 ± 1.40 mL/h/kg
same,V1,[4],0.0368 ± 0.00412 L/kg
same,Vss,[4],0.0987 ± 0.0141 L/kg
same,t1/2β,[4],12.0 ± 2.21 h
same,AUC,[6],541 ± 77.9 µg·h/mL
same,CL,[6],9.21 ± 1.24 mL/h/kg
same,V1,[6],0.0446 ± 0.00204 L/kg
same,Vss,[6],0.0753 ± 0.0092 L/kg
same,t1/2β,[6],10.9 ± 2.86 h
CC[C@H](C)[C@H](NC(=O)[C@H](CC(C)C)NC(=O)[C@H](CCCNC(=N)N)NC(C)=O)C(=O)N[C@@H](CCC(=O)O)C(=O)N[C@@H](CC(=O)O)C(=O)N[C@H](C(=O)N[C@H]1CSSC[C@@H](C(=O)N[C@@H](CC(C)C)C(=O)N[C@@H](Cc2c[nH]c3ccccc23)C(=O)N[C@@H](CCC(=O)O)C(=O)N[C@@H](CC(=O)O)C(N)=O)NC(=O)CNC(=O)[C@H](Cc2c[nH]c3ccccc23)NC(=O)[C@H](CCCNC(=N)N)NC(=O)[C@@H]2CCCN2C(=O)[C@H](CC(C)C)NC1=O)[C@@H](C)CC [SA22] (Ac-RLIEDICLPRWGCLWED-NH2; disulfide 7-13),improvement in IC50 relative to core sequence of about 10 amino acids,rabbit albumin [2],60 fold
